Measured values published in patent US20240209334A1, “SMALL-MOLECULE-ACTIVATED GLYCAN MODIFYING ENZYMES AND USES THEREOF” (President and Fellows of Harvard College, priority 2022, published 2024).

B1: OGA-intein(C181): miniOGA with the 4-HT-responsive evolved intein inserted at C181 (protein)
chain: MEQKLISEEDLAIAMVQKESQATLEERESELSSNPAASAGASLEPPAAPAPGEDNPAGAGGAAVAGAAGGARRFLCGVVEGFYGRPWVMEQRKELFRRLQKWELNTYLYAPKDDYKHRMFWREMYSVEEAEQLMTLISAAREYEIEFIYAISPGLDITFSNPKEVSTLKRKLDQVSQFGCRSFALLFDDIDHNMCLAEGTRIFDPVTGTTHRIEDVVDGRKPIHVVAAAKDGTLLARPVVSWFDQGTRDVIGLRIAGGAIVWATPDHKVLTEYGWRAAGELRKGDRVAGPGGSGNSLALSLTADQMVSALLDAEPPILYSEYDPTSPFSEASMMGLLTNLADRELVHMINWAKRVPGFVDLTLHDQAHLLERAWLEILMIGLVWRSMEHPGKLLFAPNLLLDRNQGKCVEGMVEIFDMLLATSSRFRMMNLQGEEFVCLKSIILLNSGVYTFLSSTLKSLEEKDHIHRALDKITDTLIHLMAKAGLTLQQQHQRLAQLLLILSHIRHMSNKGMEHLYSMKYKNVVPLYDLLLEMLDAHRLHAGGSGASRVQAFADALDDKFLHDMLAEGLRYSVIREVLPTRRARTFDLEVEELHTLVAEGVVVHNCAADKEVFSSFAHAQVSITNEIYQYLGEPETFLFCPTEYCGTFCYPNVSQSPYLRTVGEKLLPGIEVLWTGPKVVSKEIPVESIEEVSKIIKRAPVIWDNIHANDYDQKRLFLGPYKGRSTELIPRLKGVLTNPNCEFEANYVAIHTLATWYKSNMNGVRKDVVMTDSEDSTVSIQIKLENEGSDEDIETDVLYSPQMALKLALTEWLQEFGVPHQYSSRGSGSGSGSGSGSGSGEKPLYTAEPVTLEDLQLLADLFYLPYEHGPKGAQMLREFQWLRANSSVVSVNCKGKDSEKIEEWRSRAAKFEEMCGLVMGMFTRLSNCANRTILYDMYSYVWDIKSIMSMVKSFVQWLGCRSHSSAQFLIGDQEPWAFRGGLAGEFQRLLPIDGANDLFFQPP

Experiments:
[1] = test system: O-GlcNAcylated proteins in HEK293T cells; experiment: Quantitative proteomics after enrichment for O-GlcNAc; format: cell-based, Homo sapiens; conditions: 25 μM OSMI-4b for 10 hours
Protocol: To further assess the spatial deglycosylation mediated by these subcellularly localized OGA-intein variants, quantitative proteomics was performed following enrichment for O-GlcNAc (38) on cell lysates after expression of C181-NLS with 4-HT treatment for 2 hours and 24 hours, respectively, or the OGT inhibitor OSMI-4b (3) for comparison (FIG. 4E and FIGS. 12A, 12B, 12C).
Chemoenzymatic labeling of O-GlcNAcylated proteins. Purification of GalT1 (Y289L) enzyme and labeling of O-GlcNAcylated proteins with GalNAz were performed according to the procedure of Hsich-Wilson and co-workers (51). Briefly, cell samples in 15-cm dishes were harvested and washed by PBS once. Cells were lysed in 2% SDS/PBS by heating at 95° C. for 5 minutes, followed by sonication. Protein concentrations were determined and then subjected to reduction and alkylation using 25 mM DTT at 95° C. for 5 minutes and 50 mM iodoacetamide at room temperature for 1 hour, respectively. Proteins were precipitated using the methanol/chloroform mix (aqueous phase: CH3OH:CHCl3=4:4:1) and resuspended in 1% SDS, 20 mM HEPES (pH 7.9) buffer with a concentration of 3.75 mg/mL. […]
Quantitative chemical proteomics. […]

Nup62 [2] = experiment: Screen of intein insertion sites: OGA-intein variants co-expressed with Nup62 in HEK293T cells, immunoblot; format: cell-based
Source text: OGA is a multi-domain hydrolase responsible for O-GlcNAc removal in mammalian cells. Based on the reported crystal structures of OGA (27-29), the essential domains of the long splice variant of OGA were identified, and it was confirmed that the HAT domain is not required for its deglycosidase activity in cells (13). In addition, replacement of the disordered region between the catalytic domain and the stalk domain with a glycine-serine flexible linker (GS-linker) maintained its activity in live cells in the absence of the C-terminal HAT domain (13, 28). This variant, termed miniOGA, was selected as the initial template for engineering with an intein due to its smaller size and simpler structure (FIG. 2A). […] Inserting this evolved 4-HT-responsive intein into a site that abolishes miniOGA activity until protein splicing has taken place could result in a conditionally active OGA for O-GlcNAc removal under the control of 4-HT. As intein splicing would leave behind a single cysteine residue (22), and to minimize alterations on OGA protein sequence, cysteine residues across different structural domains and the GS-linker at miniOGA were selected as the candidate insertion sites, thus generating OGA-intein fusion constructs for nine positions in total (C62, C166, C181, C220, C316, C596, C631, C663, and the GS-linker) (FIG. 2A). The nine OGA-intein variants were transiently expressed in HEK293T cells together with a model glycoprotein Nup62. Cells were treated with or without 1 μM 4-HT for 24 hours after transfection. OGA-intein variants were then detected by the Myc tag to verify the expected splicing, and their enzymatic activities were evaluated by detection of O-GlcNAc on the substrate Nup62 following immunoprecipitation.
(§1) Immunoprecipitation and Immunoblot assays. […]
(§2) For immunoblotting analysis, proteins were transferred to a nitrocellulose membrane using an iBlot system (Invitrogen). […] Immunoblot images were captured using Azure Imager C600 and analyzed with Fiji ImageJ for converting all IR fluorescence western blot images to grayscale images.

[3] = test system: global O-GlcNAc level in MCF-7 cells; experiment: Immunoblot of global O-GlcNAc level and splicing in MCF-7 stable cell lines; format: cell-based, human; conditions: MCF-7 cells stably expressing the variant
Source text: In addition to serving as an activator for intein splicing, 4-HT is also known as the active metabolite of tamoxifen, an FDA-approved drug for treating breast cancer patients. Breast cancer cells also have elevated OGT expression (39) and decreased levels of OGA (40, 41), resulting in elevated O-GlcNAcylation in the proteome. OGT is usually required for tumor growth and metastasis (39), and low OGA expression is correlated with poor survival in breast cancer patients (FIG. 13). The ER positive breast cancer-derived MCF-7 cell line is sensitive to tamoxifen and 4-HT, resulting in suppression of cell proliferation, yet drug resistance occurs after long-term treatment (42). Previous studies also show evidence that upregulation of O-GlcNAcylation protects MCF-7 cells from tamoxifen-induced cell death (43). To determine if reduction of O-GlcNAc sensitized MCF-7 cells to 4-HT treatment, it was assessed whether 4-HT induced inhibition of breast cancer cell proliferation and OGA-intein activation worked synergistically to accelerate cell death (FIG. 5A). […] Next, these two cell lines were treated with 4-HT at increasing concentrations, and cell viability was measured after 48 hours. […] Given that 4-HT promoted MCF-7 cell death through apoptosis (43), the apoptosis of these cells under 4-HT treatment was further analyzed through flow cytometry analyses following Annexin V and DAPI staining. […]

Nup62 [4] = experiment: Spatial deglycosylation of cytoplasmic Nup62 by OGA-intein(C181) variants in HEK293T cells; format: cell-based; conditions: cytoplasmic Nup62 co-expressed
Protocol: (§3) Next, it was assessed whether these OGA-intein(C181) variants enable selective spatial deglycosylation in live cells. As O-GlcNAc affects the subcellular localization of many proteins (37), Nup62 was used as a model cytoplasmic substrate, which was previously primarily localized in the cytoplasm when transiently overexpressed in HEK293T cells independent of the O-GlcNAcylation state (13) (FIGS. 11A, 11B). Nup62 was co-expressed with three OGA-intein(C181) variants (C181-WT, C181-NLS, and C181-NES) in HEK293T cells, and Nup62 was enriched for O-GlcNAc measurement. […] Next, Nup62 was localized to the nucleus by attachment to an NLS tag (Nup62-NLS), and a similar coexpression and 4-HT-triggered activation was performed with OGA-intein(C181) variants. […] The fluorescent intensity of OGA-intein variants also show a strong correlation to the localization of Nup62, indicating the desired subcellular distribution (FIGS. 11A-C).
as §1, §2

Nup62-NLS = experiment: Spatial deglycosylation of nuclear Nup62-NLS by OGA-intein(C181) variants in HEK293T cells; format: cell-based; conditions: nuclear Nup62-NLS co-expressed
Protocol: as §3, §1, §2

Row | Molecule | change of O-GlcNAc on nuclear and cytoplasmic proteins [1] | intein splicing / spliced product on 4-HT treatment (Nup62 [2]; 1 μM 4-HT for 24 hours, Myc tag detection) | deglycosylation activity in the presence of 4-HT (Nup62 [2]; co-expressed Nup62, 1 μM 4-HT for 24 hours) | OGA activity (deglycosylation of Nup62) in the absence of 4-HT (Nup62 [2]; co-expressed Nup62, without 4-HT) | global O-GlcNAc level after adding 4-HT [3] | removal of O-GlcNAc from Nup62 after 4-HT-triggered activation (Nup62 [4]) | 4-HT-induced deglycosylation of Nup62-NLS (Nup62-NLS)
1 | CCOC(=O)CN(Cc1cccs1)C(=O)[C@H](NS(=O)(=O)c1cc2ccc(=O)[nH]c2cc1Cl)c1ccccc1OC [OSMI-4b] | mild reduction of O-GlcNAc on both nuclear and cytoplasmic proteins |  |  |  |  |  | 
2 | B1 |  | yielding the active spliced product | high deglycosylation activity | little activity | decreased global O-GlcNAc level | removed O-GlcNAc from Nup62 | 4-HT-induced deglycosylation
